Laboratory results: patent US20240117030A1 (Pfizer, published 2024)

T1: recombinant human IL-4 (human, UniProt P05112 25-153)
T1 sequence (looked up): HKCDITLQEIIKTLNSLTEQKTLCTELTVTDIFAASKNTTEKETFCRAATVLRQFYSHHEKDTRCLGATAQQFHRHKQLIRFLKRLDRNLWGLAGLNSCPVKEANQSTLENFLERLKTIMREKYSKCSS

T2: IL-33 mm2 (human, UniProt O95760 112-270, limits assumed)
T2 sequence (looked up): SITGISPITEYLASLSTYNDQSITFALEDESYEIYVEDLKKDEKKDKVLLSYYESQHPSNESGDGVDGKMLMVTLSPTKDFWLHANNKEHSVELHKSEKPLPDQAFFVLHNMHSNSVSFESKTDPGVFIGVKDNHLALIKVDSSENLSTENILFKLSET


Legend:
Assay in all cases: cell-based or functional assay
[1] = target: T1, recombinant human IL-4
[2] = target: T1, recombinant human IL-4; remark: listed apart in the source
[3] = target: T1, recombinant human IL-4; remark: listed apart in the source
[4] = target: recombinant human IL-13 (human, UniProt P35225 35-146)
recombinant human IL-13, sequence (P35225 35-146 limits assumed): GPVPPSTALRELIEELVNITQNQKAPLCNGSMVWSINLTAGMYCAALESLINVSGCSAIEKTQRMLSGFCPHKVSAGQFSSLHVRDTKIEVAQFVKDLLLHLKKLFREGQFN

[5] = target: T2, IL-33 mm2

Binder | IC50 (median), IL-4 induced CD23 expression on human monocytes [1] [pM] | IL-4 induced CD23 upregulation (IC50), parental IgG [2] [pM] | IL-4 Induced CD23 Expression, potency of cytokine neutralization [3] [pM] | IL-13 Induced CD23 Expression, potency of cytokine neutralization [4] [pM] | IL-33 mm2 Cys Activation of SEAP Reporter Cells, potency of cytokine neutralization [5] [pM]
IL4-1040 (antibody, human IgG1, kappa, V domains shown) VH: EVTLRESGPALVKPTQTLTLTCTFSGFSLSNFGEGLSWIRQPPGKGLEWLAHIYWDDDKRYNPSLKSRLTISKDTSRNQVVLTMTNMDPVDTATYYCARRETVFYWYFDVWGQGTTVTVSS VL: DIQMTQSPSSLSASVGDRVTITCRASQSVDEEGDSYMNWYQQKPGKAPKLLIYAASNLESGVPSRFSGSGSGTDFTLTISSLQPEDFATYYCQQSNKDPPTFGGGTKVEIKR | 3.23 | 3.23 | – | – | –
IL13433-0607 (other) heavy: EVQLVESGGGLVQPGGSLRLSCAASGFTFSSYAMSWVRQAPGKGLEWVASISTGDTTYYPDSVKGRFTISRDNAKNSLYLQMNSLRAEDTAVYYCARNEGYYFGLTQWGRGTLVTVSSASTKGPSVFPKAPSSKSTSGGTAALGCLVKDYFPEPVTVSWNSGALTSGVHTFPAVLQSSGLYSLSSSVTVPSSSLGTQTYICNVNHKPSNTKVDKKVEPKSCDKTHTCPPCPAPEAAGAPSVFLFPPKPKDTLMISRTPEVTCVVVDVSHEDPEVKFNWYVDGVEVHNAKTKPREEQYNSTYRVVSVLTVLHQDWLNGKEYKCKVSNKALPAPIEKTISKAKGQPREPQVCTLPPSREEMTKNQVSLWCLVKGFYPSDIAVEWESNGQPENNYKTTPPVLDSDGSFFLYSKLTVDKSRWQQGNVFSCSVLHEALHSHYTQKSLSLSPGK chain 1: DIQMTQSPSSLSASVGDRVTITCRASQPISKHLDWYQQKPGKAPKLLIYFTNNLQTGVPSRFSGSGSGTDFTLTISSLQPEDFATYYCFQYNQGWTFGGGTKVEIKRTVAAPSVFIFPPSDEQLKSGTASVVCLLNNFYPREAKVQWKVDNALQSGNSQESVTEQDSKDSTYSLSSTLTLSKADYEKHKVYACEVTHQGLSSPVTKSFNRGECGGGGSEVTLRESGPALVKPTQTLTLTCTFSGFSLSNFGEGLSWIRQPPGKGLEWLAHIYWDDDKRYSTSLKTRLTISKDTSRNQVVLTMTNMDPVDTATYYCARRETVFYWYFDVWGQGTTVTVSSASTKGPSVFPEAPSSKSTSGGTAALGCLVKDYFPEPVTVSWNSGALTSGVHTFPAVLQSSGLYSLGSVVTVPSSSLGTQTYICNVNHKPSNTKVDKKVEPKSCDKTHTCPPCPAPEAAGAPSVFLFPPKPKDTLMISRTPEVTCVVVDVSHEDPEVKFNWYVDGVEVHNAKTKPREEQYNSTYRVVSVLTVLHQDWLNGKEYKCKVSNKALPAPIEKTISKAKGQPREPQVYTLPPCREEMTKNQVSLSCAVKGFYPSDIAVEWESNGQPENNYKTTPPVLDSDGSFFLVSKLTVDKSRWQQGNVFSCSVLHEALHSHYTQKSLSLSPGK light 1: DIQMTQSPSSLSASVGDRVTITCRASESVDHFGWSLVHWYQQKPGKAPKLLIYRADSLETGVPSRFSGSGSGTDFTLTISSLQPEDFATYYCQQSNEDPWTFGGGTKVEIKRTVAAPSVFIFPPSDEQLKSGTASVSCLLNNFYPREAKVQWKVDNALQSGNSQESVTEQDSKDSTYSLDSTLTLSKADYEKHKVYACEVTHQGLSSPVTKSFNRGEC light 2: DIQMTQSPSSLSASVGDRVTITCRASQSVDEEGDSYMNWYQQKPGKAPKLLIYAASNLESGVPSRFSGSGSGTDFTLTISSLQPEDFATYYCQQSHKDPPTFGGGTKVEIKRTVAAPSVFIFPPSDEQLKSGTASVSCLLNNFYPREAKVQWKVDNALQSGNSQESVTEQDSKDSTYSLKSTLTLSKADYEKHKVYACEVTHQGLSSPVTKSFNRGEC chain 2: EVQLVESGGGLVQPGGSLRLSCAASGFTFSSYWMYWVRQAPGKGLEWVAAITPNAGEDYYPESVKGRFTISRDNAKNSLYLQMNSLRAEDTAVYYCARGHYYYTSYSLGYWGQGTLVTVSSASTKGPSVFPLAPSSKSTSGGTAALGCLVKDYFPEPVTVSWNSGALTSGVHTFPAVLQSSGLYSLSSVVTVPSSSLGTQTYICNVNHKPSNTKVDKKVEPKSC | – | – | 66.9 | 20.3 | 182

The remaining lines, values ahead:

IC50 (median), IL-4 induced CD23 expression on human monocytes [1] [pM] | IL-4 induced CD23 upregulation (IC50), parental IgG [2] [pM] | IL-4 Induced CD23 Expression, potency of cytokine neutralization [3] [pM] | IL-13 Induced CD23 Expression, potency of cytokine neutralization [4] [pM] | IL-33 mm2 Cys Activation of SEAP Reporter Cells, potency of cytokine neutralization [5] [pM] | Binder
– | – | 3.2 | 12.5 | 45 | IL13433-0005 (other) heavy: EVTLRESGPALVKPTQTLTLTCTFSGFSLSNFGEGLSWIRQPPGKGLEWLAHIYWDDDKRYNPSLKSRLTISKDTSRNQVVLTMTNMDPVDTATYYCARRETVFYWYFDVWGQGTTVTVSSASTKGPSVFPEAPSSKSTSGGTAALGCLVKDYFPEPVTVSWNSGALTSGVHTFPAVLQSSGLYSLGSVVTVPSSSLGTQTYICNVNHKPSNTKVDKKVEPKSCDKTHTCPPCPAPEAAGAPSVFLFPPKPKDTLMISRTPEVTCVVVDVSHEDPEVKFNWYVDGVEVHNAKTKPREEQYNSTYRVVSVLTVLHQDWLNGKEYKCKVSNKALPAPIEKTISKAKGQPREPQVYTLPPCREEMTKNQVSLSCAVKGFYPSDIAVEWESNGQPENNYKTTPPVLDSDGSFFLVSKLTVDKSRWQQGNVFSCSVMHEALHNHYTQKSLSLSPGK chain 1: DIQMTQSPSSLSASVGDRVTITCKASQNINKHLDWYQQKPGKAPKLLIYFTNNLQTGVPSRFSGSGSGTDFTLTISSLQPEDFATYYCFQYNQGWTFGGGTKVEIKRTVAAPSVFIFPPSDEQLKSGTASVVCLLNNFYPREAKVQWKVDNALQSGNSQESVTEQDSKDSTYSLSSTLTLSKADYEKHKVYACEVTHQGLSSPVTKSFNRGECGGGGSEVQLVESGGGLVQPGGSLRLSCAASGFTFSSYAMSWVRQAPGKGLEWVASISSGDTTYYPDSVKGRFTISRDNAKNSLYLQMNSLRAEDTAVYYCARNEGYYFGLTLWGQGTLVTVSSASTKGPSVFPKAPSSKSTSGGTAALGCLVKDYFPEPVTVSWNSGALTSGVHTFPAVLQSSGLYSLSSSVTVPSSSLGTQTYICNVNHKPSNTKVDKKVEPKSCDKTHTCPPCPAPEAAGAPSVFLFPPKPKDTLMISRTPEVTCVVVDVSHEDPEVKFNWYVDGVEVHNAKTKPREEQYNSTYRVVSVLTVLHQDWLNGKEYKCKVSNKALPAPIEKTISKAKGQPREPQVCTLPPSREEMTKNQVSLWCLVKGFYPSDIAVEWESNGQPENNYKTTPPVLDSDGSFFLYSKLTVDKSRWQQGNVFSCSVMHEALHNHYTQKSLSLSPGK light 1: DIQMTQSPSSLSASVGDRVTITCKASQSVDEDGDSYMNWYQQKPGKAPKLLIYAASNLESGVPSRFSGSGSGTDFTLTISSLQPEDFATYYCQQSNEDPPTFGGGTKVEIKRTVAAPSVFIFPPSDEQLKSGTASVSCLLNNFYPREAKVQWKVDNALQSGNSQESVTEQDSKDSTYSLKSTLTLSKADYEKHKVYACEVTHQGLSSPVTKSFNRGEC light 2: DIQMTQSPSSLSASVGDRVTITCKASESVDHFGWSLVHWYQQKPGKAPKLLIYRASNLESGVPSRFSGSGSGTDFTLTISSLQPEDFATYYCQQSNEDPWTFGGGTKVEIKRTVAAPSVFIFPPSDEQLKSGTASVSCLLNNFYPREAKVQWKVDNALQSGNSQESVTEQDSKDSTYSLDSTLTLSKADYEKHKVYACEVTHQGLSSPVTKSFNRGEC chain 2: EVQLVESGGGLVQPGGSLRLSCAASGFTFSSYWMYWVRQAPGKGLEWVAAITPNAGEDYYPESVKGRFTISRDNAKNSLYLQMNSLRAEDTAVYYCARGHYYYTSYSLGYWGQGTLVTVSSASTKGPSVFPLAPSSKSTSGGTAALGCLVKDYFPEPVTVSWNSGALTSGVHTFPAVLQSSGLYSLSSVVTVPSSSLGTQTYICNVNHKPSNTKVDKKVEPKSC
2.09 | 2.06 | – | – | – | IL4-0002 (antibody, human IgG1, kappa) heavy: EVTLRESGPALVKPTQTLTLTCTFSGFSLSNFGEGLSWIRQPPGKGLEWLAHIYWDDDKRYNPSLKSRLTISKDTSRNQVVLTMTNMDPVDTATYYCARRETVFYWYFDVWGQGTTVTVSSASTKGPSVFPLAPSSKSTSGGTAALGCLVKDYFPEPVTVSWNSGALTSGVHTFPAVLQSSGLYSLSSVVTVPSSSLGTQTYICNVNHKPSNTKVDKKVEPKSCDKTHTCPPCPAPEAAGAPSVFLFPPKPKDTLMISRTPEVTCVVVDVSHEDPEVKFNWYVDGVEVHNAKTKPREEQYNSTYRVVSVLTVLHQDWLNGKEYKCKVSNKALPAPIEKTISKAKGQPREPQVYTLPPSREEMTKNQVSLTCLVKGFYPSDIAVEWESNGQPENNYKTTPPVLDSDGSFFLYSKLTVDKSRWQQGNVFSCSVMHEALHNHYTQKSLSLSPGK light: DIQMTQSPSSLSASVGDRVTITCKASQSVDEDGDSYMNWYQQKPGKAPKLLIYAASNLESGVPSRFSGSGSGTDFTLTISSLQPEDFATYYCQQSNEDPPTFGGGTKVEIKRTVAAPSVFIFPPSDEQLKSGTASVVCLLNNFYPREAKVQWKVDNALQSGNSQESVTEQDSKDSTYSLSSTLTLSKADYEKHKVYACEVTHQGLSSPVTKSFNRGEC
